Results as given in the DeepSol protein solubility set.

Experiment: soluble on expression in E. coli; label from the status in PepcDB or PDB records

Sequence | soluble on expression in E. coli
MRKGLLAALLLLSACQVLEGSGYRVTEVQFLFPEATERWTYFYGEPRVVELDGRPLRLEAPQGENLWAFPGALWVEGSPVLRATYPSRPPVAEAVRGVSGSLLQVRAQAPLLATWLYDGVGWVRLTGSLREGEERTLVQPANYQTPRLFPLTEEESAVVLREVLARRGGKPVVVFELREPPLPPLRLSPAPDAYRIARLQVQYGLRLEPVMPPAPIFRVLGQGTQAAYQEEAPLALLANDPTSFNRLWALAVGNQLPRPAAPAVDFRNRSVAAFFWGLKPTGGYGLKVVGVTYAGERARVVLSLGAPKPGAITTQALTSPYVVLELQKVRRVVFADTSGKVLAEARD | soluble
GSHMASMTGGQQMGRGSGSHMASMTGGQQMGRGSRVGEQSQAGDPGLVSAYGPGLEGGTTGVSSEFIVNTLNAGSGALSVTIDGPSKVQLDCRECPEGHVVTYTPMAPGNYLIAIKYGGPQHIVGSPFKAKVTGPRLS | soluble
MSLAFPKIISVDDHTVEPPDVWRDRLPKKYQDTGPRIVRAPLKEMTFLGGKFAPVMGGPGDDGPLGDWWVYEDLHRPLTRLDTAVGYSRDEIKLEVITYEQMRPGSYDVPRRLADMDVNHVQSALCFPTFPRFCGQTFTEAKDRELGLLGVRAYNDWMVEEWCGPDAHGRLIPLTLVPLWDARLAAAEVRRNAARGVRAVAFSEIPPHLGLPSVHTDDWDPFLAACDETGTVIAMHIGSSSRMPSTSADAPPAVGSTITFANCCFSMVDWLMSGKFERFPNLRVMYAEGQIGWIPYILERADVVWEENRGWGGVADKVHRPPSELFAGHVFGCFFDDAFGLRNLDAIGIGNVLYETDYPHSDSTWPKSREVGEAQMGHLEAEVVERIVRGNAIELLGLTDDGEGHHHHHH | not soluble
MRRLLLASSLLTLLAGCANHVIDPHGYDETGTAAYYGTRHHGNRTASGEPFNQNALTAAHRQLPFGTRVKVTNLNNDKSVIVRVNDRGPHTRGRLIDVSREAAEQLGMLRSGTAPVRVQALD | not soluble
MGSDKIHHHHHHMLVPMSEGDTSELDHDADHLAEGDERYLLRNKRQIRGLLQQLIDQRAVVTMHVAGRDMAVPTAVLEVDEDDDCVILDGSHNDASNRAIEQAKYLLCYAQLERVNIRFRLETPERLERDIHVAFRATLPDSLYHLQRRESYRLETPITDSPTCTIRQDAASGGNLNLQLRVIDISSGGLAVSLTTGMPLLDPQHTYRDCTLQLPDSAPIALPLTVCSQYKMTLPNGSEGFRVGMQFSDLPRGADETIQRYIFRVDRQRNARKSGVF | not soluble
MKLAVITDSTATLPTDLKQDKAIFSLDIPVIIDDETYFEGRNLSIDDFYQKMADSQNLPKTSQPSLSELDNLLGLLSSKGYTHVIGLFLAGGISGFWQNIQFLAEEHPEIEMAFPDSKITSAPLGSMVKNVLDWSRQGMTFQAILNKLQEQIDGTTAFIMVDDLNHLVKGGRLSNGSALLGNLLSIKPILRFDEEGKIVVYEKVRTEKKAMKRLVEILNDLIADGQYNVFIIHSKAQDKADYLKRLLQDSGYQYDIEEVHFGAVIATHLGEGAIAFGVTPRL | not soluble
MAHHHHHHMPSDGEGKVQQVNIDEIDAVTGFKKAELYVWNAYAAAFLAEGGEPETDVEAWIDDFCQRSEESGAVFDRNFVKSVCTLGIYAGPRDEFQQRSGCGKATYASGDTYEGEFFEGKKHGRGQYIFVSKGRSEADRVVSKEVELLTSAGKDAKAMVTEIATKLQLGRHVVEGIMQYGQRPCYHGDYVRGKRTGRGVMKNKDGTLYQGEFLENKRHGQGVYYYLNGDVYSGNWKAGAKDGYGTYHFAEGSEYRGEWVRGNFVQGQWILQGGSYYEGKFDKKNRPLDDAASLHYPSIQMAQTGAFRRGIWAPTSALQVCSEVPVDGMAWAD | soluble
SLKVAIFDAFNGASGDMILASLLGVGISEEEIDEVVKALGIDVNYSMTTVSVRGISARRVEVEERDGERSFKEVLEIIRSSNLEEGVKKNAIAVFELIARAEGKVHGRDYREGVFHEVGADDAIFDVVCCVKAFENLKTAGYEFFATPVRAGSGFVEFSHGKYPVPPPAVLEILKSSNLEVVMDGEGELLTPTGAAILSHYCKPLKPFPIRVKEVSYGAGKRETDVPNVLRLILGETAFHDSIVVIETSVDDLSGEMIGYAMKKLLERDDVLDAVIIPAYGKKMRPASILKVISPTHRSEEVAAEVMRLTGSLGIRIIPVHHRLISERMEEVVKVEISGKEFDVRVKRSYPGFRHLKPEFDDIAVIADELNIPPHVVYREIVRKIVGAENADSNGQ | soluble
MNTSEHEREHDHVIEVTDLRRVYGGDFEAVRGITFSVERGELFALLGTNGAGKTSTVELLEGLAAPSGGRVRVLGHDPYEERAAVRPRTGVMLQEGGFPSELTVAETVRMWAGCTSGARPVGEALSLVGLERRPDVRVKQLSGGERRRLDLALALLGRPEVLFLDEPTTGLDAEGRQETWELVRELRDGGTTVLLTTHYLEEAEGLADRLAILHEGRIATAGTPAEVTAAQPSRISFDLPDGYFLGDLPPLADLGVSTHETTGRTVRLRTHELQRTATALLLWAQRAQVELRGLDVRSASLEEAFLRIAREAAGDRPGRPGRTDVSGTTASGKEAVALEHHHHHH | soluble
MGSDKIHHHHHHLTKKITEFQNDEEMELFVLIKSAEKRVTKAGKDFISMKFQDRSGDIHGNCWDAKEEDFKNFQPGRVVLLRGKRETYKNAPQVKIMAMRLATDEEPNDPTAYTEKGPVSAEKLREEFTQLMFEINNPDWNRVVRYLLKKYDREFFSFPAAKTNHHAFEGGLAFHTLSIVNLAKSVAAQYEQVDQSLLIAGAILHDLGKTIELSGPIATQYTVEGNLLGHIVIVDEEIVEAAKDLKIDPSSESMVVLRHMIVAHHGLKEYGSPVEPHMLEAVILHALDELDAEIQMVSGALKNTQPGAFSERIFGMDGRNFYKPESK | not soluble
MSLSAQGSQDGRFAGQLALVTGASRGIGAATAKALAAQGAHVVLVARTAKELEKVEEEIFEAGGSATIAPVDLSEPEGIARLATAISGRWSALDVLVINAAAFPTLTPVWQIDSREFNNALTLNVLATQALLAGFDGMLKKSKDARVIGVTSSVGATPRAYWGAYGASKAAFDVLLDCYAQEVRNTSAVRVAILDPGATRTKMRARAYPGENPESVKAPEVVAERMVALLGEQFSSPHRERVNQDEGHHHHHH | soluble
MAHHHHHHMLNALGITSPRHDALIAKFLKAMAVEGGASEATKRDEAVDAARFVYVFSTVWRAAVTHRTPRSPVSTRVSAPPRSPPAAQQHGNSPDGATMRHAYSREVSCRGAPPSHMKAAPATEVGSSGGSGSAVSARSSSSPSAVWSSSEGGEGAAHSHTESASPLTSCGGGDERRSDAAESDADFLRTNISDASSSIPDSSEKPQAGVRSEELSPMSVEPSAGLDPSPEPCNPGEPVIITSARSSVTPRTHHCSPFAAASRLGSASVSRSRRMSSSLRVIPSDSHLLSSTTSRELKRATKRVPGGLMRECTFKPVINSVYEQSPVSFSSTAIVQKRKPASTAPPTFQPNTQQFHQARDSLARWTRQPIKDNSDYRGEAAANPLATGVETAVRRMIAARQQRQRSQSPRPSLQKGSHHSAPAPQSTVRAPVAHPRKPLLYVDVDLPQGQRDRLALYTGDDVQDVAQRFSILHGLSESLCQRLETALTAELCALSVGKAA | not soluble
MARPETEPKTELAKRFREVRRILGFTERKQFAEHLGVTAGSIGTYETGVSEPTASALSKYQEICGVSLDWLVTGNGEMFTDMAKAKAAGFKPQAIPAGLMKRLGHLAYTTYHDAKITLPPEDVAELAAGLYGKLQELIHNINDMEEVEATLPLLKLHLKRQIEVEKAHRAIPGNTANSSD | not soluble
MKKALLVVSFGTSYHDTCEKNIVACERDLAASCPDRDLFRAFTSGMIIRKLRQRDGIDIDTPLQALQKLAAQGYQDVAIQSLHIINGDEYEKIVREVQLLRPLFTRLTLGVPLLSSHNDYVQLMQALRQQMPSLRQTEKVVFMGHGASHHAFAAYACLDHMMTAQRFPARVGAVESYPEVDILIDSLRDEGVTGVHLMPLMLVAGDHAINDMASDDGDSWKMRFNAAGIPATPWLSGLGENPAIRAMFVAHLHQALNMAVEEAA | soluble
YQWLPNIGSGEAGADWGLRLTSRDMGKFGLMWLNKGQYNGTKIVGEEWLNELRKSKFYSYEMGYGLHFWQVSNVENGVAAVGIGEQYIVAIPNKNAVIVTTAGNYETRSRPVLTLIQQLSSLL | not soluble
MTIPLPGLEVRGSKTGKPIMALLDLLGRTWSLGIIWNLHSGPATFRELQQRCEKISPTLLNTRLKELKTLQLVECQEAGYQLTHQGLDLFDIISPLGSWSSQWAQGLKEDSK | not soluble
MIRQTLWSDVAAPLQNAFQTNNSGNRPVLMMLGGYTFSLASLVYQELARVNEYRWAAIERYGQRDARQYTGPGDESIELPGIAYPDWQGQRASLDELRALAAQGKPLQLIDSNGLIHGWYVIERIEERQSDHHPNGTPRRIEFTLALQRVNDDHAVEATP | not soluble
MALPGERFHVLAQLEHLQSKYTGTAMRHEPSRMDCESAPRHSRLSNVSSRNEHVYCRCGEREPSSNPLQSDKSHDSAVWTASREESS | not soluble
MQFGIFTIGDVTVDPTTGKAPTEGERIHAMTQIALKAEEVGLDVFATGEHHNPPFVPSSPTTHLAYIAAKTEKLLLSTSTTLITTNDPVKIAEDYTFLQHLSGGRVDLMMGRGNTGPVYPWFGKDIHQGIPLAIENYHLLRRLWREDVVNWQGKFRTPLQGYTSTPAPLDGVAPFVWHGSIRSTEIAEQAAFYGDGFFHNNIFWNKEHTAQMVNLYRQRFEHYGHGQADQAIVGLGGQVFIGDSEEEAKKTFRPYFDNAPVYGHGPSLEDFSRLTPLTVGTAEQVIERTMEFADWVGDYQRQLFLIDHAGLPLEMVLDQIERLGHDVVPEVRRRMEERRPDHVPSNPPTHQSLKANRNSPHFQINPGQPTE | not soluble
GPGSMYVLYCCTMQGYSQLSGSSSDENIVHPLSSDGNTVTISPTYTLRMHFLPQHQVAKGAEKNNQIELSVAPTDALIINFPEGTEGSETEVMEQLIGTGRWQWVVPMRPFDGYDSTRSYRLKARRFPVAAGDDSNELTPPTIVHVPNISSIIEAGMRVSNRSQSGLHRSRGGVVCFVVGADPSVVRVPEGKKLLEQLFSEVGRSTISTATLGLRQLHNANWALFISPCRTNKLFAWKERLPSSSVSSGSLWWLCAAADVLLEINTAAEWVTAHFD | not soluble
MGSDKIHHHHHHMAKVAHKKLLLSELQPGMRVKLPLSWTNHPFLFNRVDINSAAQIEMIRGLGVPFVYLISGSSDDAEAVDEEEEIEEIDEMPPERDLKADTRKSMRLSQKRFLESVNQCRNVFGKIVSDPEGAYRLSAALVEDLLSHLQEVQKPFLTLVGMDEKDVSVTQHGVSVAVLAMMIGHALDLPARELRDIALGSLFHDIGKLKVPDVIRRKRSALTPHEANYLQMHPNFGYDMLNRSGLFPKEVLNIVLHHHEFVDGSGFPDGLTGHKIPMVTQIVSLANDYDQQLSGQQATSPQVALGYLFKNRASKHSESLISVLVKILGIYPPGTIVKLSDDNVAKVIMTTKEVSQPQVWACKEDGSEASLRFLSDEGVTVQKSLRVEDLTEGAKRTLQVDKGISFYFSSLQA | not soluble
MNTRSSLSEEQREQLVGLCEQDLDFTTTASRIGGRHTLARSLYHCWLLHGRLCLVEKPTKKHYSFEIKKEVVDRFLAGETRMNLAKEFKLSSPQQVKDWVSKWHKRR | not soluble
FTLRLNSTEMPMSDLIEVELLTGKQLLLVEPNMQAASVTQQILSQEGILVTYRSSLPENEEHYDYVLLNLAANQTYDEQSVAAWIEQAKRMAPSVIMGTPSTELALADQIMTEHQIQCLTKPLSRRKLLQS | not soluble
